Measured values: patent US20160030477

Columns and labels:
Test in all cases: cell_activity
[1] = test system: ZFN 49812 (synthetic); settings: pair 50773/49812, K562, AAV6 donor
[2] = test system: ZFN 44298 (synthetic); settings: pair 44298:44271, K562, day 3 (36.6% day 10; GFP 0.2%)
[3] = test system: ZFN 44271 (synthetic); settings: pair 44298:44271, K562, day 3 (36.6% day 10; GFP 0.2%)
[4] = test system: ZFN 50773 (synthetic); settings: pair 50773/49812, K562, AAV6 donor

## CTTTTATGACCCATTTGGAAGAAATAAA (double strand) [RAG1 site 4 (55002/55005/49812)]
[1]
  activity (% targeted integration): 5

## TTACAATCATGTGGGCAGAATTGAAAAG (double strand) [IL2RG 44298 site]
[2]
  activity: 42.8 % indels

## GCCAGTGGCAGGCACCAGATCTCTGTAC (double strand) [IL2RG 44271 site]
[3]
  activity: 42.8 % indels

## ATGATAAAGCTGCAAACCCAAAGAAACT (double strand) [RAG1 site 4 (50773)]
[4]
  activity (% targeted integration): 5
